From US20150290235A1, “USE OF SMALL MOLECULE INHIBITORS/ACTIVATORS IN COMBINATION WITH (DEOXY)NUCLEOSIDE OR (DEOXY)NUCLEOTIDE ANALOGS FOR TREATMENT OF CANCER AND HEMATOLOGICAL MALIGNANCIES OR VIRAL INFECTIONS” (AB SCIENCE, priority 2012, published 2015)

Test system: Nc1ccn([C@@H]2O[C@H](CO)[C@@H](O)C2(F)F)c(=O)n1
Test: cells, lysate or membranes named
Conditions: other: ATP donor, 10 nM dCK, no masitinib

human deoxycytidine kinase (dCK) (Homo sapiens), sequence (chain, as listed by the source): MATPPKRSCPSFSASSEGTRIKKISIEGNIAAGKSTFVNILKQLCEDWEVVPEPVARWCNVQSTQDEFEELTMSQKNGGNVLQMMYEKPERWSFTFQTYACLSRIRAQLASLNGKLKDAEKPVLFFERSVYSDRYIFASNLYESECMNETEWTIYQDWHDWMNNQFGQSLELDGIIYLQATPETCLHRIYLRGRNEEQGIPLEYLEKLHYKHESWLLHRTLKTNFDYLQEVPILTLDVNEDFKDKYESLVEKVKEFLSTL

Substance “human deoxycytidine kinase (dCK) (Homo sapiens)” has a Km of 1 ± 0.3 µM.
